US20090203041A1, “BMP4 INHIBITORS” (priority 2006, published 2009)
“Also recorded” adds a separate entry of the source.

How the values were obtained:
BMP4 [1] = target: T1, BMP4 (Homo sapiens, UniProt P12644); experiment: BMP4-induced C2C12 cell differentiation assay, peptide preincubated with BMP4; assay type: cell-based; conditions: peptide 5 μm preincubated with BMP4 100 ng/mL; C2C12 cells, ALP activity
T1 sequence (P12644 293-408): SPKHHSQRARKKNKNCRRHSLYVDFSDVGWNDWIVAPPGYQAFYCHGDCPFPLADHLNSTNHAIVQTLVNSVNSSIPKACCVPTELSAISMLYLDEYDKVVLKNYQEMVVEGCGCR
Description: (§1) To test whether exogenous expression of Gremlin can inhibit the activity of exogenously expressed BMP4, the activity of BMP4 secreted into the CM was measured by its effect on mouse myoblast C2C12 cell differentiation into osteoblasts. C2C12 cells were grown in 96-well plate until 90% confluence. Agents (100 ng/ml BMP4 or equivalent amounts of concentrated conditioned medium) were then added into the culture medium (Dulbecco's modified Eagle's medium with 5% fetal bovine serum) and the cells were cultured for 3 days. The cells were then lysed with 0.1% Triton X-100, and the alkaline phosphatase (ALP) activity in the cell lysate was quantified by adding substrate p-nitrophenyl phosphate and measuring absorbance at A405. Triplicate measurements were preformed for every sample. Conditioned media from cells transfected with control, Myc-BMP4, GRE-HA, or Myc-BMP4 and GRE-HA were assayed for BMP4 activity.
The function of the 30 amino acid Gremlin motif in mediating interaction between Gremlin and BMP4 and BMP4 inhibitor activity was assayed by the BMP4-induced C2C12 cell differentiation assay. A linear peptide corresponding to the mapped amino acid sequence (145-174) was synthesized by Genscript (Scotch Plains, N.J.).

Myc-BMP4 = target: T2, Myc-BMP4 (Mus musculus, UniProt P21275, INS296EQKLISEEDL); experiment: Co-immunoprecipitation of Myc-BMP4 with HA-tagged Gremlin proteins co-expressed in COS-1 cells (anti-HA IP, anti-Myc Western blot); assay type: binding; conditions: co-transfected COS-1 cells
T2 construct: expressed in transfected cells; host or cells: COS-1 cells
T2 sequence (P21275 with tags, fused parts or gaps limits assumed): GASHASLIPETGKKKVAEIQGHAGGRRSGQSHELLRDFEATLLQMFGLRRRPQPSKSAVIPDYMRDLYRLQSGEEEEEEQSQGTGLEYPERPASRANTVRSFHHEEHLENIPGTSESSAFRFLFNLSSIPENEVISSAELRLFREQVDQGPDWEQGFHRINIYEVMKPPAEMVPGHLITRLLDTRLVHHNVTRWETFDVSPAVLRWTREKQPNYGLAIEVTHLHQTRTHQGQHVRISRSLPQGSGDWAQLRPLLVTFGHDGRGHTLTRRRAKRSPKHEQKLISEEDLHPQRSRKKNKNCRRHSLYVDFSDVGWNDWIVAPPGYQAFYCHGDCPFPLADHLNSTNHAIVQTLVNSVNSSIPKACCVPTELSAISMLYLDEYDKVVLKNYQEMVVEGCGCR
Description: (§2) To test whether exogenous BMP4 and Gremlin physically interact intracellularly, Myc-BMP4 and GRE-HA were co-transfected into COS-1 cells using Lipofectamine Plus (Invitrogen). Transfected cells were first cultured in medium containing 10% fetal calf serum for 20 hours and then cultured in serum-free conditioned medium (CM) for an additional 48 hours, and experiments were repeated at least three times.
To determine the specificity of BMP4-Gremlin binding and the molecular motif of Gremlin that is responsible for the intermolecular interaction, two truncated Gremlin molecules, GRE-DAN-HA and GRE-NF-HA, were generated with truncation of the NH2-terminal fragment (NF) or the carboxyl-terminal DAN domain (DAN), respectively, as diagramed in FIG. 6A (amino acid positions are in reference to SEQ ID NO:4). The two truncated Gremlin molecules were co-transfected with Myc-BMP4 into COS-1 cells, and immunoprecipitation was performed with anti-HA antibodies.
Partial cDNA of mouse Mucin-2, which encodes a Mucin-2 protein fragment of 114 amino acids on the carboxyl terminus (PQNQ . . . LGRK, GenBank™ accession number XP—620590) was generated by high fidelity RT-PCR (Pfu, Stratagene) and verified by DNA sequencing. An HA epitope was also added to the carboxyl terminus of Mucin-2 by inverted PCR. A variety of Gremlin-Mucin-2 chimeric cDNA constructs were created by inverted PCR in combination with restricted digestion and ligation of PCR products. The Gremlin-Mucin-2 chimeras generated are as diagrammed in FIG. 7B. These HA-epitope tagged Gremline-Mucin-2 chimera proteins were co-expressed with Myc-BMP in COS-1 cells by transient transfection. The BMP4 binding activities and inhibitory activities were evaluated by immunoprecipitation and BMP4-stimulated C2C12 cell differentiation assay as described in Examples 3 and 4. The results for the Gremlin-Mucin-2 chimeras are seen in FIGS. 8A and 8B.

[2] = target: Myc-tagged mouse BMP4 (Myc-BMP4) (mouse) (UniProt P21275); experiment: cell-based or functional assay
BMP4 [3] = target: T3, BMP4 (Mus musculus, UniProt P21275); experiment: BMP4-stimulated C2C12 cell differentiation assay (alkaline phosphatase activity) with conditioned medium of transfected COS-1 cells; assay type: cell-based; conditions: C2C12 ALP activity
T3 construct: mature but no precursor BMP4 was detected in the concentrated CM; expressed in transfected cells; host or cells: COS-1 cells (conditioned medium applied to C2C12 cells)
T3 sequence (P21275 with tags, fused parts or gaps): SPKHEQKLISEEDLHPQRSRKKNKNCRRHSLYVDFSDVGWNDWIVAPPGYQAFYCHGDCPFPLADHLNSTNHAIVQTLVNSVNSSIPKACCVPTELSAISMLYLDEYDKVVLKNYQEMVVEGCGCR
Description: as §2, §1
CM collected separately from cells transfected with Myc-BMP4 or GRE-HA was mixed and preincubated for 1 hour before adding to C2C12 cells (1). COS-1 cells were transfected separately with Myc-BMP4 or GRE-HA, trypsinized and co-cultured during CM collection (2).

For “PKKFTTMMVTLNCPELQPPTKKKRVTRVKQ (listed as Homo sapiens) [linear peptide]”, the “inhibition of BMP4 activities” value (BMP4 [1]) was 56±10%.

B1: GRE-DAN-HA: truncated HA-tagged Gremlin with the NH2-terminal fragment deleted (protein)
chain: CKTQPLKQTIHEEGCNSRTIINRFCYGQCNSFYIPRHIRKEEGSFQSCSFCKPKKFTTMMVTLNCPELQPPTKKKRVTRVKQCRCISIDLD
modifications: left off: small tags and cut ends
notes: truncated HA-tagged Gremlin with the NH2-terminal fragment deleted
In the case of B1, the “BMP4 binding (co-immunoprecipitation of Myc-BMP4)” value (“BMP4 binding” below) (Myc-BMP4) is reported as “retained its BMP4 binding activity”.

B2: HA-tagged mouse Gremlin (GRE-HA) (protein, not shown: small tags and cut ends)
chain: KKKGSQGAIPPPDKAQHNDSEQTQSPPQPGSRTRGRGQGRGTAMPGEEVLESSQEALHVTERKYLKRDWCKTQPLKQTIHEEGCNSRTIINRFCYGQCNSFYIPRHIRKEEGSFQSCSFCKPKKFTTMMVTLNCPELQPPTKKKRVTRVKQCRCISIDLD
B2 gave an inhibition of BMP4 activity (alkaline phosphatase activity, C2C12 cell differentiation assay); CM of Myc-BMP4 cells mixed with an equal amount of CM of GRE-HA cells [2] of 20%, an inhibition of BMP4 activity (alkaline phosphatase activity, C2C12 cell differentiation assay); CM of cells co-transfected with Myc-BMP4 and GRE-HA [2] of 86% and an inhibition of BMP4 activity (alkaline phosphatase activity, C2C12 cell differentiation assay); CM of co-cultured cells transfected separately with Myc-BMP4 or GRE-HA [2] of 55%.

B3: GRE-HA: HA-epitope tagged mouse Gremlin, full length, expressed by transfection (protein)
chain: KKKGSQGAIPPPDKAQHNDSEQTQSPPQPGSRTRGRGQGRGTAMPGEEVLESSQEALHVTERKYLKRDWCKTQPLKQTIHEEGCNSRTIINRFCYGQCNSFYIPRHIRKEEGSFQSCSFCKPKKFTTMMVTLNCPELQPPTKKKRVTRVKQCRCISIDLD
modifications: left off: small tags and cut ends
For B3, the BMP4 inhibitory effect (BMP4 [3]; CM from COS-1 cells transfected separately with Myc-BMP4 or GRE-HA and co-cultured during CM collection) was 55±5%, the BMP4 activity inhibited (BMP4 [3]; CM of Myc-BMP4 transfected cells plus equal amount of CM from GRE-HA transfected cells, mixed and preincubated 1 hour) was 20±9% and the BMP4 activity inhibited (BMP4 [3]; cells co-transfected with Myc-BMP4 and GRE-HA, p<0.05) was 86±4%. For the same molecule, the “BMP4 binding” value (Myc-BMP4) was “Myc-BMP4 precursor was found in the cell lysate; also recorded: retained its BMP4 binding activity”.

B4: GRE-NF-HA: truncated HA-tagged Gremlin with the carboxyl-terminal DAN domain deleted (protein)
chain: KKKGSQGAIPPPDKAQHNDSEQTQSPPQPGSRTRGRGQGRGTAMPGEEVLESSQEALHVTERKYLKRDW
modifications: left off: small tags and cut ends
notes: truncated HA-tagged Gremlin with the carboxyl-terminal DAN domain deleted
In the case of B4, the “BMP4 binding” value (Myc-BMP4) is reported as “completely abolished”.
